Measured values published in paper PMC5531734 (Molecular Biology of the Cell, 2017).

Target: Na/K-ATPase α1-β2 (ATP1A1 with ATP1B2) (human, UniProt P05023-1 1-1023; P14415 1-290)
Experiment: binding to transfected cells, Western blot of washed cell pellets

retinoschisin binding relative to α3-β2 (densitometry): 1.5 fold of binding to α3-β2
B1: retinoschisin (natural protein)
chain: STEDEGEDPWYQKACKCDCQGGPNALWSAGATSLDCIPECPYHKPLGFESGEVTPDQITCSNPEQYVGWYSSWTANKARLNSQGFGCAWLSKFQDSSQWLQIDLKEIKVISGILTQGRCDIDEWMTKYSVQYRTDERLNWIYYKDQTGNNRVFYGNSDRTSTVQNLLRPPIISRFIRLIPLGWHVRIAIRMELLECVSKCA
